These results are taken from paper PMC6697062.

Test [1] deals with C5A + K40 one-armed SEEDbody. Put plainly: BLI; oaSEEDbody on anti-human Fc (AHC) tips; association with 100 nM CEACAM5 at pH 7.4, dissociation at pH 7.4 in kinetic buffer (PBS, 0.1% Tween 20, 1% BSA); 30 C; 1:1 model. Background: In BLI a coated tip is dipped into the sample, and binding shifts an interference pattern.
The target in test [2] is C5A + CV2 one-armed SEEDbody. The description is as above.
In test [3] the target is C5A + IGKV3-15*01 one-armed SEEDbody. The description is as above.
For test [4], the target named is C5A + CV3 one-armed SEEDbody. The test is described as above.
Test [5] deals with C5A + CV1 one-armed SEEDbody. The test is described as above.
The target in test [6] is C5A + K39 one-armed SEEDbody. Described as above.
Test [7] deals with C6B/CV2 one-armed SEEDbody. Put plainly: BLI; C6B oaSEEDbody on anti-Fab tips; association with 100 nM CEACAM6 at pH 7.4, dissociation at pH 5.0.
Test [8] concerns the target C6B/IGKV3-15*01 one-armed SEEDbody. Described as above.
The target of test [9] is C6B/CV2 one-armed SEEDbody. Put plainly: BLI; C6B oaSEEDbody on anti-Fab tips; association with 100 nM CEACAM6 at pH 7.4, dissociation at pH 6.0.
Test [10] concerns the target C6B/IGKV3-15*01 one-armed SEEDbody. Described as above.
Test [11] addresses C6B/CV2 one-armed SEEDbody. Nature of the test: BLI; C6B oaSEEDbody on anti-Fab tips; association with 100 nM CEACAM6 at pH 7.4, dissociation at pH 7.4; 1:1 model.
Test [12] deals with C6B/IGKV3-15*01 one-armed SEEDbody. The description is as above.

CEACAM6, sequence (P40199 35-320): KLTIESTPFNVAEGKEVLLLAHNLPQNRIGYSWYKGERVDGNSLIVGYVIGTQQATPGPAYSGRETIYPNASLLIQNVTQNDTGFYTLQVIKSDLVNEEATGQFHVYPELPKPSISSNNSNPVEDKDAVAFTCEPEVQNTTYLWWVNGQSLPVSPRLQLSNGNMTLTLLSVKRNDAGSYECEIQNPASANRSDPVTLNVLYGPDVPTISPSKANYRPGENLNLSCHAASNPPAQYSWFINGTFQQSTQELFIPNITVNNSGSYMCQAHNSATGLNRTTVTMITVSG

As usually defined, the Kd is the equilibrium constant for the complex coming apart. Take “recombinant human His-tagged CEACAM5 (from UniProt P06731 35-685) (natural protein)”: the Kd came out at 3.12 nM in [1]; 4.14 nM in test [2]; 0.9 nM in [3]; 2.55 nM in [4]; 4.11 nM in test [5]; 4.16 nM in [6].
The term koff denotes a measure of how fast the partners let go of each other. The low end stands for a long-lived complex, the high end for a short-lived complex. For the substance “CEACAM6 (from UniProt P40199 35-320) (natural protein)”, the koff in [7] worked out at 0.000768 s⁻¹; in test [8] it was 0.000361 s⁻¹; in test [9], 0.000142 s⁻¹; in test [10] it was 0.00019 s⁻¹; in [11] it was 0.000262 s⁻¹; in [12], 0.000158 s⁻¹. The results for the Kd in test [11] and in test [12] were 7.73 nM and 8.77 nM, respectively.
